The target of assay [1] is recombinant MiPII fused to the His-tag (pET-PII) (Myrmecia incisa). Briefly: co-IP; purified recombinant MiPII (200 ug) and MiNAGK (400 ug) in 1 mL 50 mM Tris-HCl pH 7.5, 100 mM KCl, with ATP (3 mM) and Mg2+ (6 mM), with or without 2-OG (5 mM); 1 h at room temperature; precipitated with rabbit anti-MiPII polyclonal antibody and protein A Sepharose; SDS-PAGE, Coomassie staining, band intensity by ImageJ.

The target of assay [2] is T1, MiPII with MiNAGK (Lobosphaera incisa, UniProt A0A2R4H197).
T1 construct: gene glnB; same proteins as P2; effector site on PII (209-aa precursor, 52-aa signal peptide removed, N-terminal His-tag kept, 21-kD band); read-out NAGK activity; with Acetylglutamate kinase, chloroplastic
As to the kind of experiment: hydroxamate-Fe([…]+) NAGK assay, […] nm. The format is biochemical. Particulars: read-out: half-maximal effective concentration.

For assay [3], the target named is T1, MiPII with MiNAGK. As to the kind of experiment: hydroxamate-Fe([…]+) NAGK assay, […] nm. The format is biochemical. Particulars: read-out: % inhibition at 1 mM.
Assay [4] deals with recombinant MiNAGK fused to the His-tag (pET-NAGK) (Myrmecia incisa).

pEC50: −log10 of the molar value.

T1 sequence (A0A2R4H197 53-209): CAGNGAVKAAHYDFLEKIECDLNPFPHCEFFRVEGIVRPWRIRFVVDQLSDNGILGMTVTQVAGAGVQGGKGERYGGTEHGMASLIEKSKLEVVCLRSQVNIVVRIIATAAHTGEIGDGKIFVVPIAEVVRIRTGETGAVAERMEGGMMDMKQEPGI
T1 sequence (A0A2R4H194 60-359 partner): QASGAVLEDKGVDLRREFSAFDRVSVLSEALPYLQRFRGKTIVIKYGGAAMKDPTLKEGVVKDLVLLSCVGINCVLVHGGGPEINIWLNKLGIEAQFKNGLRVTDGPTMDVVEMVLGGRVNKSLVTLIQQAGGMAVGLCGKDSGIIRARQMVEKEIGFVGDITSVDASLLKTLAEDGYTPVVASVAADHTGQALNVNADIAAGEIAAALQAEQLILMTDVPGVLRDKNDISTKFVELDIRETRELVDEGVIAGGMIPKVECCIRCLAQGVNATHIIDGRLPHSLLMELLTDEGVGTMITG
Chain of recombinant MiPII fused to the His-tag (pET-PII) (Myrmecia incisa) (main, as listed by the source): as the sequence (A0A2R4H197 53-209) above
Chain of recombinant MiNAGK fused to the His-tag (pET-NAGK) (Myrmecia incisa) (main, as listed by the source): as the sequence (A0A2R4H194 60-359 partner) above

As for “recombinant MiNAGK fused to the His-tag (pET-NAGK) (enzyme)”, the intensity of the stained MiNAGK band in the precipitate with 2-OG relative to without 2-OG in assay [1] was 0.65 times.

Regarding `NC(=O)CC[C@H](N)C(=O)O` [Gln], the pEC50 at MiPII with MiNAGK [2] was roughly 2.52.

For the molecule `O=C(O)CCC(=O)C(=O)O` [2-OG], the inhibition at 1000 µM on MiPII with MiNAGK [3] is roughly 30%.

Turning to “recombinant MiPII fused to the His-tag (pET-PII) (natural protein)”, the specific activity of recombinant MiNAGK with MiPII (10 ug) and Gln (10 mM), 2-OG from 0 to 4 mM; value at 1 mM 2-OG in assay [4] amounted to 30%.
